From patent publication US20020035733A1 (AREXIS, published 2002)

B1: rat insulin degradation enzyme (IDE) variant A890V (valine for alanine at amino acid 890) (enzyme)
chain: MRNGLVWLLHPALPSTLHSILGARPPPVKRLCGFPKQIYSTMNNPAIQRIEDHIVKSPEDKREYRGLELANGIKVLLISDPTTDKSSAALDVHIGSLSDPPNIPGLSHFCEHMLFLGTKKYPKENEYSQFLSEHAGSSNAFTSGEHTNYYFDVSHEHLEGALDRFAQFFLCPLFDASCKDREVNAVDSEHEKNVMNDAWRLFQLEKATGNPKHPFSKFGTGNKYTLETRPNQEGIDVREELLKFHSTYYSSNLMAICVLGRESLDDLTNLVVKLFSEVENKNVPLPEFPEHPFQEEHLKQLYKIVPIKDIRNLYVTFPIPDLQQYYKSNPGHYLGHLIGHEGPGSLLSELKSKGWVNTLVGGQKEGARGFMFFIINVDLTEEGLLHVEDIILHMFQYIQKLRAEGPQEWVFQECKDLNAVAFRFKDKERPRGYTSKIAGKLHYYPLNGVLTAEYLLEEFRPDLIDMVLDKLRPENVRVAIVSKSFEGKTDRTEQWYGTQYKQEAIPEDVIQKWQNADLNGKFKLPTKNEFIPTNFEILALEKDATPYPALIKDTAMSKLWFKQDDKFFLPKACLNFEFFSPFAYVDPLHCNMAYLYLELLKDSLNEYAYAAELAGLSYDLQNTIYGMYLSVKGYNDKQPILLKKITEKMATFEIDKKRFEIIKEAYMRSLNNFRAEQPHQHAMYYLRLLMTEVAWTKDELKEALDDVTLPRLKAFIPQLLSRLHIEALLHGNITKQAALGVMQMVEDTLIEHAHTKPLLPSQLVRYREVQLPDRGWFVYQRRNEVHNNCGIEIYYQTDMQSTSENMFLELFCQIISEPCFNTLRTKEQLGYIVFSGPRRANGIQGLRFIIQSEKPPHYLESRVEAFLITMEKAIEDMTEEAFQKHIQALVIRRLDKPKKLSAECAKYWGEIISQQYNYDRDNIEVAYLKTLSKDDIIKFYKEMLAVDAPRRHKVSVHVLAREMDSCPVVGEFPSQNDINLSEAPPLPQPEVIHNMTEFKRGLPLFPLVKPHINFMAAKL
B2: rat insulin degradation enzyme (IDE), GK allele containing both H18R and A890V (enzyme)
chain: MRNGLVWLLHPALPSTLRSILGARPPPVKRLCGFPKQIYSTMNNPAIQRIEDHIVKSPEDKREYRGLELANGIKVLLISDPTTDKSSAALDVHIGSLSDPPNIPGLSHFCEHMLFLGTKKYPKENEYSQFLSEHAGSSNAFTSGEHTNYYFDVSHEHLEGALDRFAQFFLCPLFDASCKDREVNAVDSEHEKNVMNDAWRLFQLEKATGNPKHPFSKFGTGNKYTLETRPNQEGIDVREELLKFHSTYYSSNLMAICVLGRESLDDLTNLVVKLFSEVENKNVPLPEFPEHPFQEEHLKQLYKIVPIKDIRNLYVTFPIPDLQQYYKSNPGHYLGHLIGHEGPGSLLSELKSKGWVNTLVGGQKEGARGFMFFIINVDLTEEGLLHVEDIILHMFQYIQKLRAEGPQEWVFQECKDLNAVAFRFKDKERPRGYTSKIAGKLHYYPLNGVLTAEYLLEEFRPDLIDMVLDKLRPENVRVAIVSKSFEGKTDRTEQWYGTQYKQEAIPEDVIQKWQNADLNGKFKLPTKNEFIPTNFEILALEKDATPYPALIKDTAMSKLWFKQDDKFFLPKACLNFEFFSPFAYVDPLHCNMAYLYLELLKDSLNEYAYAAELAGLSYDLQNTIYGMYLSVKGYNDKQPILLKKITEKMATFEIDKKRFEIIKEAYMRSLNNFRAEQPHQHAMYYLRLLMTEVAWTKDELKEALDDVTLPRLKAFIPQLLSRLHIEALLHGNITKQAALGVMQMVEDTLIEHAHTKPLLPSQLVRYREVQLPDRGWFVYQRRNEVHNNCGIEIYYQTDMQSTSENMFLELFCQIISEPCFNTLRTKEQLGYIVFSGPRRANGIQGLRFIIQSEKPPHYLESRVEAFLITMEKAIEDMTEEAFQKHIQALVIRRLDKPKKLSAECAKYWGEIISQQYNYDRDNIEVAYLKTLSKDDIIKFYKEMLAVDAPRRHKVSVHVLAREMDSCPVVGEFPSQNDINLSEAPPLPQPEVIHNMTEFKRGLPLFPLVKPHINFMAAKL
B3: rat insulin degradation enzyme (IDE) variant H18R (arginine for histidine at amino acid 18) (enzyme)
chain: MRNGLVWLLHPALPSTLRSILGARPPPVKRLCGFPKQIYSTMNNPAIQRIEDHIVKSPEDKREYRGLELANGIKVLLISDPTTDKSSAALDVHIGSLSDPPNIPGLSHFCEHMLFLGTKKYPKENEYSQFLSEHAGSSNAFTSGEHTNYYFDVSHEHLEGALDRFAQFFLCPLFDASCKDREVNAVDSEHEKNVMNDAWRLFQLEKATGNPKHPFSKFGTGNKYTLETRPNQEGIDVREELLKFHSTYYSSNLMAICVLGRESLDDLTNLVVKLFSEVENKNVPLPEFPEHPFQEEHLKQLYKIVPIKDIRNLYVTFPIPDLQQYYKSNPGHYLGHLIGHEGPGSLLSELKSKGWVNTLVGGQKEGARGFMFFIINVDLTEEGLLHVEDIILHMFQYIQKLRAEGPQEWVFQECKDLNAVAFRFKDKERPRGYTSKIAGKLHYYPLNGVLTAEYLLEEFRPDLIDMVLDKLRPENVRVAIVSKSFEGKTDRTEQWYGTQYKQEAIPEDVIQKWQNADLNGKFKLPTKNEFIPTNFEILALEKDATPYPALIKDTAMSKLWFKQDDKFFLPKACLNFEFFSPFAYVDPLHCNMAYLYLELLKDSLNEYAYAAELAGLSYDLQNTIYGMYLSVKGYNDKQPILLKKITEKMATFEIDKKRFEIIKEAYMRSLNNFRAEQPHQHAMYYLRLLMTEVAWTKDELKEALDDVTLPRLKAFIPQLLSRLHIEALLHGNITKQAALGVMQMVEDTLIEHAHTKPLLPSQLVRYREVQLPDRGWFVYQRRNEVHNNCGIEIYYQTDMQSTSENMFLELFCQIISEPCFNTLRTKEQLGYIVFSGPRRANGIQGLRFIIQSEKPPHYLESRVEAFLITMEKAIEDMTEEAFQKHIQALAIRRLDKPKKLSAECAKYWGEIISQQYNYDRDNIEVAYLKTLSKDDIIKFYKEMLAVDAPRRHKVSVHVLAREMDSCPVVGEFPSQNDINLSEAPPLPQPEVIHNMTEFKRGLPLFPLVKPHINFMAAKL

Target: insulin (125I-insulin mixed with unlabeled insulin)
Assay: cell-based or functional assay

Row | Binder | insulin degrading activity in intact COS-1 cells, percentage of wild type activity
1 | B1 | 95 % of wild type activity
2 | B2 | 69 % of wild type activity
3 | B3 | 89 % of wild type activity
